Measured values reported in patent publication US8048999B2, “Nuclear reprogramming factor” (Kyoto University, priority 2005, dated 2011).

Tests used:
[1] = test system: Nanog-EGFP-IRES-Puro mouse MEFs; experiment: iPS cell establishment with Nanog-GFP reporter, puromycin selection; format: cell-based; conditions: 4 factors; PD98059 final concentration 25 μM continuously added from the next day of transfection
Excerpt: Studies were made as to whether iPS cells could be established with a reporter other than Fbx15-βgeo. […] artificial chromosome (BAC) containing the Nanog gene in the center was isolated, and then the GFP gene and the puromycin resistance gene were knocked in by recombination in E. coli (FIG. 12A). Subsequently, the above modified BAC was introduced into ES cells to confirm that the cells became GFP-positive in an undifferentiated state specific manner (data not shown). Then, these ES cells were transplanted in mouse blastocysts to create transgenic mice via chimeric mice. In these mice, GFP-positive cells were specifically observed in inner cell masses of the blastocysts or gonads of embryos at 13.5 days after fertilization (FIG. 12B). The gonads were removed from the embryos at 13.5 days after fertilization (hybrid of DBA, 129, and C57BL/6 mice), and MEFs were isolated. The isolated MEFs were confirmed to be GFP-negative (FIG. 13) by flow cytometry. These MEFs were retrovirally transduced with the 4 factors and subjected to puromycin selection, and as a result, a plural number of resistant colonies were obtained. Only about 10 to 20% of the colonies were GFP-positive. When the GFP-positive colonies were passaged, they gave morphology (FIG. 14) and proliferation (FIG. 15) similar to those of ES cells. […]

[2] = test system: MEFs derived from the Fbx15^βgeo/βgeo mouse; experiment: Effect of cytokine-producing STO feeder cells on iPS cell establishment (G418 selection); format: cell-based; conditions: 3 factors other than c-Myc transduced
Excerpt: An effect of cytokine on iPS cell establishment was investigated. Expression vector (pMX retroviral vector) for basic fibroblast growth factor (bFGF) or stem cell factor (SCF) was transduced into feeder cells (STO cells) to establish cells permanently expressing the cytokines. […] As a result, the number of formed colonies increased 20 times or higher on the STO cells producing bFGF (FIG. 11) or SCF (data not shown), as compared with the culture on normal STO cells.

| Molecule | percentage of GFP-positive colonies [1] [%] | colony formation with the 3 factors other than c-Myc on cytokine-producing STO cells [2] |
| --- | --- | --- |
| COc1cccc(-c2cc(=O)c3ccccc3o2)c1N [PD98059] | 45 |  |
| bFGF: cytokine permanently expressed by STO feeder cells transduced with pMX expression vector (protein, UniProt P15655 10-154, looked up) Fibroblast growth factor 2: PALPEDGGAAFPPGHFKDPKRLYCKNGGFFLRIHPDGRVDGVREKSDPHVKLQLQAEERGVVSIKGVCANRYLAMKEDGRLLASKCVTEECFFFERLESNNYNTYRSRKYSSWYVALKRTGQYKLGSKTGPGQKAILFLPMSAKS |  | colony formation was observed |
| SCF: cytokine permanently expressed by STO feeder cells transduced with pMX expression vector (protein, UniProt P20826 26-190, looked up) Soluble KIT ligand: KEICGNPVTDNVKDITKLVANLPNDYMITLNYVAGMDVLPSHCWLRDMVIQLSLSLTTLLDKFSNISEGLSNYSIIDKLGKIVDDLVLCMEENAPKNIKESPKRPETRSFTPEEFFSIFNRSIDAFKDFMVASDTSDCVLSSTLGPEKDSRVSVTKPFMLPPVAA |  | colony formation was observed |
